Blank lines part the entries; values can stand above or below the binder they belong to.
What was measured:
[1] = molecular target: T1, Recombinant human PD-1 Fc fusion protein (Sino Biological) (human, UniProt Q15116 25-167); test: BLI (ForteBio Octet); PD-1 Fc on Protein A sensors, 100 nM construct; column 'Affinity (nM)'
T1 construct: not shown: Fc part of a bought fusion protein
Description: (§1) Antigen binding of MIAC constructs were analyzed using ForteBio Octet. […] All antigens were reconstituted in PBS at the final concentration of 0.25 ug/ul. […] Association proceeded by dipping sensors in 100 nM MIAC constructs for 5 minutes and disassociation occurred in blank kinetics buffer for 5 minutes. For CD3 epsilon binding, antigen was immobilized on Ni-NTA sensors; association was performed in 50 nM MIAC constructs. Binding data were analyzed using ForteBio Data Analysis 9.0 software.

[2] = molecular target: T2, Recombinant human CD137 Fc fusion protein (Sino Biological) (human, UniProt Q07011 24-186); test: ForteBio Octet bio-layer interferometry, sequential steps on one sensor: Her2 loading, blocking antibody, PID7, PD-1 (printed 'PI-1'), CD137
T2 construct: not shown: Fc part of a bought fusion protein

[3] = molecular target: T2, Recombinant human CD137 Fc fusion …; test: BLI (ForteBio Octet); CD137 Fc on Protein A sensors, 100 nM construct; column 'Affinity (nM)'
Description: as §1

[4] = molecular target: T1, Recombinant human PD-1 Fc fusion …; test: BLI (ForteBio Octet); antigen-Fc on Protein A sensors, construct in solution; NB: no binding detected
Description: as §1

[5] = molecular target: T3, Recombinant human Her2 Fc fusion protein (Sino Biological) (human, UniProt P04626 23-652); test: as above
T3 construct: not shown: Fc part of a bought fusion protein
Description: as §1

[6] = molecular target: T2, Recombinant human CD137 Fc fusion …; test: as above
Description: as §1

[7] = molecular target: T1, Recombinant human PD-1 Fc fusion …; test: ForteBio Octet bio-layer interferometry, sequential steps on one sensor: Her2 loading, blocking antibody, PID92, PD-1 (printed 'PI-1'), CD137

T1 sequence (Q15116 25-167 limits assumed): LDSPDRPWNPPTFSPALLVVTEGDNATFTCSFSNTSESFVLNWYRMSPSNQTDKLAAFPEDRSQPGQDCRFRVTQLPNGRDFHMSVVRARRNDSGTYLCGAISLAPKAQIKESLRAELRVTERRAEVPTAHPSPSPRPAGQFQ

Kd [1]: 0.12 nM
binding result [2]: no binding
B1: PID-7 (bispecific Her2/PD-1 MIAC; pembrolizumab IgG1 with trastuzumab scFv at the heavy chain C-termini) (bispecific antibody)
heavy: not shown
light: EIVLTQSPATLSLSPGERATLSCRASKGVSTSGYSYLHWYQQKPGQAPRLLIYLASYLESGVPARFSGSGSGTDFTLTISSLEPEDFAVYYCQHSRDLPLTFGGGTKVEIKRTVAAPSVFIFPPSDEQLKSGTASVVCLLNNFYPREAKVQWKVDNALQSGNSQESVTEQDSKDSTYSLSSTLTLSKADYEKHKVYACEVTHQGLSSPVTKSFNRGEC
notes: also called α-Her2/α-PD-1

Kd [3]: 0.7 nM
binding result [4]: no binding (tested: 100 nM)
binding result [5]: no binding (tested: 100 nM)
B2: PID-90 (monospecific anti-CD137; urelumab Fab domain, human IgG1) (antibody, V domains shown)
VH: QVQLQQWGAGLLKPSETLSLTCAVYGGSFSGYYWSWIRQSPEKGLEWIGEINHGGYVTYNPSLESRVTISVDTSKNQFSLKLSSVTAADTAVYYCARDYGPGNYDWYFDLWGRGTLVTVSS
VL: EIVLTQSPATLSLSPGERATLSCRASQSVSSYLAWYQQKPGQAPRLLIYDASNRATGIPARFSGSGSGTDFTLTISSLEPEDFAVYYCQQRSNWPPALTFGGGTKVEIKR
notes: also called PID90 (CD137)

binding result [6]: no binding (tested: 100 nM)
binding result [5]: no binding (tested: 100 nM)
B3: PID-2 (monospecific anti-PD-1; pembrolizumab Fab domain, human IgG1) (antibody, V domains shown)
VH: QVQLVQSGVEVKKPGASVKVSCKASGYTFTNYYMYWVRQAPGQGLEWMGGINPSNGGTNFNEKFKNRVTLTTDSSTTTAYMELKSLQFDDTAVYYCARRDYRFDMGFDYWGQGTTVTVSS
VL: EIVLTQSPATLSLSPGERATLSCRASKGVSTSGYSYLHWYQQKPGQAPRLLIYLASYLESGVPARFSGSGSGTDFTLTISSLEPEDFAVYYCQHSRDLPLTFGGGTKVEIKR
notes: also called PID2 (PD-1)

Kd [3]: 0.23 nM
binding result [7]: no binding
B4: PID-92 (bispecific Her2/CD137 MIAC; urelumab IgG1 with trastuzumab scFv at the heavy chain C-termini) (bispecific antibody)
heavy: not shown
light: not shown
notes: also called α-Her2/α-CD137 MIAC; PID92 [Her2/CD137]

From patent publication US20190031785A1 (COMPASS THERAPEUTICS, published 2019)
